Measurements from patent publication US20220267420A1 (Memorial Sloan Kettering, published 2022).

B1: Foxp3-#32 bispecific mAb (bispecific antibody)
chain: QSVLTQPPSVSVAPGKTARITCGGNNIGSKSVHWYQQKPGQAPVLVIYYDSDRPSGIPERFSGSNSGNTATLTISRVEAGDEADYYCQVWDSSSDHYVFGTGTKVTVLGSRGGGGSGGGGSGGGGSLEMAEVQLVESGGGVVQPGRSLRLSCAASGFTFNNHAMHWVRQAPGKGLEWVAVISFDGDDKFYADSVKGRFTISRDNSRNTLFLQMNNLRPEDTAVYYCSRDPYHFASGSYSYFDYWGQGTLVTVSSTSGGGGSDVQLVQSGAEVKKPGASVKVSCKASGYTFTRYTMHWVRQAPGQGLEWIGYINPSRGYTNYADSVKGRFTITTDKSTSTAYMELSSLRSEDTATYYCARYYDDHYCLDYWGQGTTVTVSSGEGTSTGSGGSGGSGGADDIVLTQSPATLSLSPGERATLSCRASQSVSYMNWYQQKPGKAPKRWIYDTSKVASGVPARFSGSGSGTDYSLTINSLEAEDAATYYCQQWSSNPLTFGGGTKVEIKHHHHHH
notes: Bispecific T cell engager format, made in CHO cells and purified through its His tag; also called FoxP3-#32 BsAb; Foxp3-bispecific mAb
B2: Foxp3-#32 mAb, mouse IgG1 form (antibody, V domains shown)
VH: EVQLVESGGGVVQPGRSLRLSCAASGFTFNNHAMHWVRQAPGKGLEWVAVISFDGDDKFYADSVKGRFTISRDNSRNTLFLQMNNLRPEDTAVYYCSRDPYHFASGSYSYFDYWGQGTLVTVSS
VL: QSVLTQPPSVSVAPGKTARITCGGNNIGSKSVHWYQQKPGQAPVLVIYYDSDRPSGIPERFSGSNSGNTATLTISRVEAGDEADYYCQVWDSSSDHYVFGTGTKVTVL
modifications: APC-conjugated in some stainings; the letters do not carry the dye.
notes: Mouse IgG1 form of the TCR-mimic antibody, used for flow cytometry and APC-conjugated in some stainings; Where the text says only 'Foxp3-#32 mAb' in the Treg and cell line stainings, the methods and legends name the mouse IgG1 form; also called mAb Foxp3-#32; mAb-Foxp3-#32

Assays:
[1] = target: T1, HLA-A*02:01 on T2 cells without added peptide (human); assay: flow cytometry; T2 cells without peptide, stained with Foxp3-#32 bispecific mAb
T1 construct: Also serves as the HLA partner in the T2 stabilization assay of the TLI analog peptides; also called T2 cells alone; HLA-A*02 molecule
Text: (§1) TLI peptide was substituted with alanine at position 1, 2, 3, 4, 5, 7, 8 and 9, or with glycine at position 10. Position 6 was already alanine and it was left intact.

[2] = target: T2, A5: … on HLA-A2 of T2 cells (human, UniProt A*02:01); assay: flow cytometry; T2 cells pulsed with the peptide at 50 ug/ml, stained with Foxp3-#32 bispecific mAb
T2 construct: on T2 cells; W5A; also called A5 analog of the Foxp3-TLI peptide/HLA-A*02:01
Text: as §1

[3] = target: T3, A7: … on HLA-A2 of T2 cells (human, UniProt A*02:01); assay: as above
T3 construct: on T2 cells; I7A; also called A7 analog of the Foxp3-TLI peptide/HLA-A*02:01
Text: as §1

[4] = target: T4, A8: … on HLA-A2 of T2 cells (human, UniProt A*02:01); assay: as above
T4 construct: on T2 cells; L8A; also called A8 analog of the Foxp3-TLI peptide/HLA-A*02:01
Text: as §1

[5] = target: T5, A9: … on HLA-A2 of T2 cells (human, UniProt A*02:01); assay: as above
T5 construct: on T2 cells; E9A; also called A9 analog of the Foxp3-TLI peptide/HLA-A*02:01
Text: as §1

[6] = target: T6, G10: … on HLA-A2 of T2 cells (human, UniProt A*02:01); assay: as above
T6 construct: on T2 cells; A10G; also called G10 analog of the Foxp3-TLI peptide/HLA-A*02:01
Text: as §1

[7] = target: T7, A1: … on HLA-A2 of T2 cells (human, UniProt A*02:01); assay: as above
T7 construct: on T2 cells; T1A; also called A1 analog of the Foxp3-TLI peptide/HLA-A*02:01
Text: as §1

[8] = target: T8, A2: … on HLA-A2 of T2 cells (human, UniProt A*02:01); assay: as above
T8 construct: on T2 cells; L2A; also called A2 analog of the Foxp3-TLI peptide/HLA-A*02:01
Text: as §1

[9] = target: T9, A3: … on HLA-A2 of T2 cells (human, UniProt A*02:01); assay: as above
T9 construct: on T2 cells; I3A; also called A3 analog of the Foxp3-TLI peptide/HLA-A*02:01
Text: as §1

[10] = target: T10, A4: … on HLA-A2 of T2 cells (human, UniProt A*02:01); assay: as above
T10 construct: on T2 cells; R4A; also called A4 analog of the Foxp3-TLI peptide/HLA-A*02:01
Text: as §1

[11] = target: T11, CD3 on the Jurkat T cell line (human, UniProt P07766 23-207); assay: flow cytometry on Jurkat cells (HLA-A2 negative)
T11 construct: whole, on cells; The result sentence says only 'CD3'; the epsilon chain comes from the description of the construct; also called human CD3 epsilon
T11 sequence (P07766 23-207): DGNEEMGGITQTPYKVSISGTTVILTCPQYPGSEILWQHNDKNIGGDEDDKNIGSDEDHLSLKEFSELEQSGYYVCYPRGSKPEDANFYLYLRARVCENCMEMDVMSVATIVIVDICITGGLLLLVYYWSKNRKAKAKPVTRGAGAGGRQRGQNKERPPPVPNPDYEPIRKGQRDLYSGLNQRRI
Experimental: Binding of the indicated bispecific mAb constructs to Foxp3+/HLA-A2+T lymphoma cell line MAC-2A and control cell line Jurkat. Since the bispecific mAb constructs were myc-tagged, the binding was tested by staining the cells with the bispecific mAbs, followed by a secondary mAb, mouse anti-myc conjugated to FITC. […] Binding strength is shown by median fluorescent intensity.

Binder	binding result [1]	Median:PE-A [2]	Median:PE-A [3]	Median:PE-A [4]	Median:PE-A [5]	Median:PE-A [6]	Median:PE-A [7]	Median:PE-A [8]	Median:PE-A [9]	Median:PE-A [10]	binding result [11]
B1	no binding	861	3470	122	117	214	5620	603	5510	4450	–
B2	–	–	–	–	–	–	–	–	–	–	no binding (tested: 1 ug/ml)
